From patent US20180037651A1
pEC50: −log10 of the molar value.

Molecular target: GPRC5D (MM.1R cells) (UniProt Q9NZD1)
Test: FACS cell binding; MM.1R cells

pEC50: 6.91
Substance: Fab6300
